For 1 protein, Km and kcat/Km results are on record in article PMC7193897.

Substrate in series [1]: CCCCCCCCCC(=O)CC(=O)N[C@H]1CCOC1=O
Nature of the series: purified protein. The settings on record: pH 8.3.

Substrate in series [2]: CCCC(=O)N[C@H]1CCOC1=O
Nature of the series: purified protein. The settings on record: pH 8.3.

B1: GcL (Parageobacillus caldoxylosilyticus NBRC 107762) (protein)
chain: MANVIKARPKLYVMDNGRMRMDKNWMIAMHNPATIHNPNAQTEFVEFPIYTVLIDHPEGKILFDTSCNPNSMGPQGRWAESTQQMFPWTATEECYLHNRLEQLKVRPEDIRYVVASHLHLDHAGCLEMFTNATIIVHEDEFNGALQCYARNQKEGAYIWADIDAWIKNNLQWRTVKRHEDNILLAEGVKVLNFGSGHAWGMLGLHVELPETGGIILASDAIYTAESYGPPIKPPGIIYDSLGYMNTVERIRRIAQETKSQVWFGHDAEQFKKFRKSTEGYYE
What is called Km is the concentration of substrate that gives half-maximal velocity. As usually defined, the kcat/Km is the second-order rate constant that governs catalysis at low substrate concentration. In the case of B1, in series [1], the Km stood at 97 ± 9 µM. Further, in series [2], the Km entry is recorded as “(9.8 ± 0.7) × 10^2 μM” and the specificity constant (kcat/Km) came to 43000 M⁻¹ s⁻¹.
